Reference: the supplement of paper PMC11246515
± gives the standard deviation of the averaged measurements.

Assay: total protein half-life in vivo (active degradation + dilution); higher = more stable protein
[1] = E. coli NCM3722 delta-clpP delta-lon delta-hslV, growth: N-lim chemostat, doubling time 6 h
[2] = E. coli NCM3722 delta-clpP, growth: N-lim chemostat, doubling time 6 h
[3] = E. coli NCM3722 delta-hslV, growth: N-lim chemostat, doubling time 6 h
[4] = E. coli NCM3722 delta-lon, growth: N-lim chemostat, doubling time 6 h
[5] = E. coli NCM3722 delta-smpB, growth: N-lim chemostat, doubling time 6 h
[6] = wild type E. coli NCM3722, growth: C-lim chemostat, doubling time 3 h
[7] = wild type E. coli NCM3722, growth: C-lim chemostat, doubling time 6 h
[8] = wild type E. coli NCM3722, growth: C-lim chemostat, doubling time 12 h
[9] = wild type E. coli NCM3722, growth: N-lim chemostat, doubling time 6 h
[10] = wild type E. coli NCM3722, growth: N-lim chemostat, doubling time 12 h
[11] = wild type E. coli NCM3722, growth: P-lim chemostat, doubling time 6 h
[12] = wild type E. coli NCM3722, growth: P-lim chemostat, doubling time 12 h

Row | Substance | total protein half-life in vivo [1] [h] | total protein half-life in vivo [2] [h] | total protein half-life in vivo [3] [h] | total protein half-life in vivo [4] [h] | total protein half-life in vivo [5] [h] | total protein half-life in vivo [6] [h] | total protein half-life in vivo [7] [h] | total protein half-life in vivo [8] [h] | total protein half-life in vivo [9] [h] | total protein half-life in vivo [10] [h] | total protein half-life in vivo [11] [h] | total protein half-life in vivo [12] [h]
1 | MTELKNDRYLRALLRQPVDVTPVWMMRQAGRYLPEYKATRAQAGDFMSLCKNAELACEVTLQPLRRYPLDAAILFSDILTVPDAMGLGLYFEAGEGPRFTSPVTCKADVDKLPIPDPEDELGYVMNAVRTIRRELKGEVPLIGFSGSPWTLATYMVEGGSSKAFTVIKKMMYADPQALHALLDKLAKSVTLYLNAQIKAGAQAVMIFDTWGGVLTGRDYQQFSLYYMHKIVDGLLRENDGRRVPVTLFTKGGGQWLEAMAETGCDALGLDWTTDIADARRRVGNKVALQGNMDPSMLYAPPARIEEEVATILAGFGHGEGHVFNLGHGIHQDVPPEHAGVFVEAVHRLSEQYHR | 4.03 ± 0.26 | 3.74 ± 0.17 | 3.83 ± 0.17 | 4.15 ± 0.56 | 3.93 ± 0.27 | 2.94 ± 0.43 | 5.94 ± 0.61 | 8.76 ± 0.76 | 4.31 ± 0.093 | 6.62 ± 0.27 | 5.88 ± 0.075 | 10.4 ± 0.69
2 | MKHLHRFFSSDASGGIILIIAAILAMIMANSGATSGWYHDFLETPVQLRVGSLEINKNMLLWINDALMAVFFLLVGLEVKRELMQGSLASLRQAAFPVIAAIGGMIVPALLYLAFNYADPITREGWAIPAATDIAFALGVLALLGSRVPLALKIFLMALAIIDDLGAIIIIALFYTNDLSMASLGVAAVAIAVLAVLNLCGARRTGVYILVGVVLWTAVLKSGVHATLAGVIVGFFIPLKEKHGRSPAKRLEHVLHPWVAYLILPLFAFANAGVSLQGVTLDGLTSILPLGIIAGLLIGKPLGISLFCWLALRLKLAHLPEGTTYQQIMVVGILCGIGFTMSIFIASLAFGSVDPELINWAKLGILVGSISSAVIGYSWLRVRLRPSV | 6.65 | 6.24 ± 0.42 | 5.55 ± 0.066 | 5.75 ± 0.5 | 6.42 ± 0.43 | 3.69 | 5.22 ± 1.9 | 12 | 5.7 ± 0.59 | 11.7 ± 0.19 | 5.867 ± 0.035 | 10.6 ± 2
3 | MPSARLQQQFIRLWQCCEGKSQDTTLNELAALLSCSRRHMRTLLNTMQDRGWLTWEAEVGRGKRSRLTFLYTGLALQQQRAEDLLEQDRIDQLVQLVGDKATVRQMLVSHLGRSFRQGRHILRVLYYRPLRNLLPGSALRRSETHIARQIFSSLTRINEENGELEADIAHHWQQISPLHWRFFLRPGVHFHHGRELEMDDVIASLKRINTLPLYSHIADIVSPTPWTLDIHLTQPDRWLPLLLGQVPAMILPREWETLSNFASHPIGTGPYAVIRNSTNQLKIQAFDDFFGYRALIDEVNVWVLPEIADEPAGGLMLKGPQGEEKEIESRLEEGCYYLLFDSRTHRGANQQVRDWVSYVLSPTNLVYFAEEQYQQLWFPAYGLLPRWHHARTIKSEKPAGLESLTLTFYQDHSEHRVIAGIMQQILASHQVTLKIKEIDYDQWHTGEIESDIWLNSANFTLPLDFSVFAHLCEVPLLQHCIPIDWQADAARWRNGEMNLANWCQQLVASKAMVPLLHHWLIIQGQRSMRGLRMNTLGWFDFKSAWFAPPDP | 6.14 ± 0.11 | 6.77 ± 0.29 |  | 5.83 ± 0.34 | 5.32 ± 0.33 |  | 5.64 ± 0.28 | 11.9 ± 2.8 | 5.67 ± 0.6 | 13.4 ± 0.32 | 5.35 ± 0.34 | 9.889 ± 0.087
4 | MGYLNNVTGYREDLLANRAIVKHGNFALLTPDGLVKNIIPGFENCDATILSTPKLGASFVDYLVTLHQNGGNQQGFGGEGIETFLYVISGNITAKAEGKTFALSEGGYLYCPPGSLMTFVNAQAEDSQIFLYKRRYVPVEGYAPWLVSGNASELERIHYEGMDDVILLDFLPKELGFDMNMHILSFAPGASHGYIETHVQEHGAYILSGQGVYNLDNNWIPVKKGDYIFMGAYSLQAGYGVGRGEAFSYIYSKDCNRDVEI | 4.66 ± 0.65 | 4.57 ± 0.21 | 4.56 ± 0.21 | 4.35 ± 0.076 | 4.52 ± 0.48 |  | 6.13 ± 0.5 | 10.8 ± 1.2 | 4.4 ± 0.1 | 7 ± 0.45 | 5.21 ± 0.26 | 11.1 ± 0.86
5 | MLDEKSSNTASVVVLCTAPDEATAQDLAAKVLAEKLAACATLIPGATSLYYWEGKLEQEYEVQMILKTTVSHQQALLECLKSHHPYQTPELLVLPVTHGDTDYLSWLNASLR | 4.37 | 4.22 ± 1.7 | 3.56 |  | 3.26 ± 0.26 |  |  | 7.25 | 3.34 ± 0.39 | 4.91 ± 0.15 | 5.13 ± 0.32 | 
6 | MTNRISRLKTALFANTREISLERALLYTASHRQTEGEPVILRRAKATAYILEHVEISIRDEELIAGNRTVKPRAGIMSPEMDPYWLLKELDQFPTRPQDRFAISEEDKRIYREELFPYWEKRSMKDFINGQMTDEVKAATNTQIFSINQTDKGQGHIIIDYPRLLNHGLGELVAQMQQHCQQQPENHFYQAALLLLEASQKHILRYAELAETMAANCTDAQRREELLTIAEISRHNAQHKPQTFWQACQLFWYMNIILQYESNASSLSLGRFDQYMLPFYQTSLTQGEDAAFLKELLESLWVKCNDIVLLRSTSSARYFAGFPTGYTALLGGLTENGRSAVNVLSFLCLDAYQSVQLPQPNLGVRTNALIDTPFLMKTAETIRFGTGIPQIFNDEVVVPAFLNRGVSLEDARDYSVVGCVELSIPGRTYGLHDIAMFNLLKVMEICLHENEGNAALTYEGLLEQIRAKISHYITLMVEGSNICDIGHRDWAPVPLLSSFISDCLEKGRDITDGGARYNFSGVQGIGIANLSDSLHALKGMVFEQQRLSFDELLSVLKANFATPEGEKVRARLINRFEKYGNDIDEVDNISAELLRHYCKEVEKYQNPRGGYFTPGSYTVSAHVPLGSVVGATPDGRFAGEQLADGGLSPMLGQDAQGPTAVLKSVSKLDNTLLSNGTLLNVKFTPATLEGEAGLRKLADFLRAFTQLKLQHIQFNVVNADTLREAQQRPQDYAGLVVRVAGYSAFFVELSKEIQDDIIRRTAHQL | 5.49 ± 0.94 | 3.15 ± 0.29 |  |  |  |  |  |  |  |  |  | 
7 | P0AAG3 | 6.26 ± 0.74 | 6.4 ± 1.1 | 6.83 ± 1.4 | 6.053 ± 0.0072 | 5.56 ± 0.4 | 3.02 ± 0.25 | 6.06 ± 0.07 | 11.3 ± 0.26 | 5.82 ± 0.16 | 11.6 ± 0.28 | 5.56 ± 0.15 | 11.4 ± 1.6
8 | MVTHRQRYREKVSQMVSWGHWFALFNILLSLVIGSRYLFIADWPTTLAGRIYSYVSIIGHFSFLVFATYLLILFPLTFIVGSQRLMRFLSVILATAGMTLLLIDSEVFTRFHLHLNPIVWQLVINPDENEMARDWQLMFISVPVILLLELVFATWSWQKLRSLTRRRRFARPLAAFLFIAFIASHVVYIWADANFYRPITMQRANLPLSYPMTARRFLEKHGLLDAQEYQRRLIEQGNPDAVSVQYPLSELRYRDMGTGQNVLLITVDGLNYSRFEKQMPALAGFAEQNISFTRHMSSGNTTDNGIFGLFYGISPSYMDGILSTRTPAALITALNQQGYQLGLFSSDGFTSPLYRQALLSDFSMPSVRTQSDEQTATQWINWLGRYAQEDNRWFSWVSFNGTNIDDSNQQAFARKYSRAAGNVDDQINRVLNALRDSGKLDNTVVIITAGRGIPLSEEEETFDWSHGHLQVPLVIHWPGTPAQRINALTDHTDLMTTLMQRLLHVSTPASEYSQGQDLFNPQRRHYWVTAADNDTLAITTPKKTLVLNNNGKYRTYNLRGERVKDEKPQLSLLLQVLTDEKRFIAN [P0AD27] | 6.51 ± 0.23 |  |  | 5.92 ± 0.086 | 6.0496 ± 0.0024 | 3.37 ± 0.44 | 5.62 ± 0.63 | 12.8 ± 0.27 | 6.18 ± 0.89 | 12.9 ± 1.1 | 6.34 ± 0.1 | 11.8 ± 0.67
9 | MPFTLGQRWISDTESELGLGTVVAVDARTVTLLFPSTGENRLYARSDSPVTRVMFNPGDTITSHDGWQMQVEEVKEENGLLTYIGTRLDTEESGVALREVFLDSKLVFSKPQDRLFAGQIDRMDRFALRYRARKYSSEQFRMPYSGLRGQRTSLIPHQLNIAHDVGRRHAPRVLLADEVGLGKTIEAGMILHQQLLSGAAERVLIIVPETLQHQWLVEMLRRFNLRFALFDDERYAEAQHDAYNPFDTEQLVICSLDFARRSKQRLEHLCEAEWDLLVVDEAHHLVWSEDAPSREYQAIEQLAEHVPGVLLLTATPEQLGMESHFARLRLLDPNRFHDFAQFVEEQKNYRPVADAVAMLLAGNKLSNDELNMLGEMIGEQDIEPLLQAANSDSEDAQSARQELVSMLMDRHGTSRVLFRNTRNGVKGFPKRELHTIKLPLPTQYQTAIKVSGIMGARKSAEDRARDMLYPERIYQEFEGDNATWWNFDPRVEWLMGYLTSHRSQKVLVICAKAATALQLEQVLREREGIRAAVFHEGMSIIERDRAAAWFAEEDTGAQVLLCSEIGSEGRNFQFASHMVMFDLPFNPDLLEQRIGRLDRIGQAHDIQIHVPYLEKTAQSVLVRWYHEGLDAFEHTCPTGRTIYDSVYNDLINYLASPDQTEGFDDLIKNCREQHEALKAQLEQGRDRLLEIHSNGGEKAQALAESIEEQDDDTNLIAFAMNLFDIIGINQDDRGDNMIVLTPSDHMLVPDFPGLSEDGITITFDREVALAREDAQFITWEHPLIRNGLDLILSGDTGSSTISLLKNKALPVGTLLVELIYVVEAQAPKQLQLNRFLPPTPVRMLLDKNGNNLAAQVEFETFNRQLNAVNRHTGSKLVNAVQQDVHAILQLGEAQIEKSARALIDAARNEADEKLSAELSRLEALRAVNPNIRDDELTAIESNRQQVMESLDQAGWRLDALRLIVVTHQ | 5.68 ± 0.18 | 5.48 ± 0.61 | 5.139 ± 0.024 | 5.36 ± 0.42 | 5.21 ± 0.39 | 3.11 ± 0.088 | 6.26 ± 0.79 | 12.5 ± 1.6 | 5.09 ± 0.06 | 9.51 ± 1.1 | 6.156 ± 0.013 | 12.1 ± 1.1
10 | MKPQVYHVDAFTSQPFRGNSAGVVFPADNLSEAQMQLIARELGHSETAFLLHSDDSDVRIRYFTPTVEVPICGHATVAAHYVRAKVLGLGNCTIWQTSLAGKHRVTIEKHNDDYRISLEQGTPGFEPPLEGETRAAIINALHLTEDDILPGLPIQVATTGHSKVMIPLKPEVDIDALSPDLNALTAISKKIGCNGFFPFQIRPGKNETDGRMFSPAIGIVEDPVTGNANGPMGAWLVHHNVLPHDGNVLRVKGHQGRALGRDGMIEVTVTIRDNQPEKVTISGTAVILFHAEWAIEL | > 8 | 4.73 |  |  | 6.56 |  |  |  |  |  |  | 
11 | MAGWHLDTKMAQDIVARTMRIIDTNINVMDARGRIIGSGDRERIGELHEGALLVLSQGRVVDIDDAVARHLHGVRQGINLPLRLEGEIVGVIGLTGEPENLRKYGELVCMTAEMMLEQSRLMHLLAQDSRLREELVMNLIQAEENTPALTEWAQRLGIDLNQPRVVAIVEVDSGQLGVDSAMAELQQLQNALTTPERNNLVAIVSLTEMVVLKPALNSFGRWDAEDHRKRVEQLITRMKEYGQLRFRVSLGNYFTGPGSIARSYRTAKTTMVVGKQRMPESRCYFYQDLMLPVLLDSLRGDWQANELARPLARLKTMDNNGLLRRTLAAWFRHNVQPLATSKALFIHRNTLEYRLNRISELTGLDLGNFDDRLLLYVALQLDEER |  |  |  |  |  | 2.67 ± 0.12 | 6.76 | 10.2 ± 3 |  |  |  | 
12 | MSQPRPLLSPPETEEQLLAQAQQLSGYTLGELAALVGLVTPENLKRDKGWIGVLLEIWLGASAGSKPEQDFAALGVELKTIPVDSLGRPLETTFVCVAPLTGNSGVTWETSHVRHKLKRVLWIPVEGERSIPLAQRRVGSPLLWSPNEEEDRQLREDWEELMDMIVLGQVERITARHGEYLQIRPKAANAKALTEAIGARGERILTLPRGFYLKKNFTSALLARHFLIQ | 5.31 ± 1.2 | 4.23 ± 0.2 | 3.6 ± 0.27 | 5.21 ± 0.38 | 3.89 ± 0.26 | 2.83 ± 0.25 | 5.16 ± 0.45 | 8.72 ± 0.48 | 4.92 |  | 5.79 | 8.63 ± 0.7
